Data as given in patent US20030152514A1 (ABGENIX, published 2003).
Where “and” joins values, the source holds several entries; their conditions need not be identical. Identical values can stand only once.

How the values were obtained:
[1] = target: T1, MUC18-V5-His antigen (extracellular domain aa 1-559 of human MUC18 fused to V5-HIS) (human, UniProt P43121 24-559); assay: SPR (Biacore 3000), mAb captured on protein A, MUC18-V5-His in flow, 1:1 model; May 2001, chip I; exponent printed without its minus sign
[2] = target: T1, MUC18-V5-His antigen (extracellular …); assay: SPR (Biacore 3000), mAb captured on protein A, MUC18-V5-His in flow, 1:1 model; October 2001, chip II; exponent printed without its minus sign
[3] = target: T1, MUC18-V5-His antigen (extracellular …); assay: SPR (Biacore 3000), average of the seven measurements
[4] = target: T1, MUC18-V5-His antigen (extracellular …); assay: SPR (Biacore 3000), mAb captured on protein A, MUC18-V5-His in flow, 1:1 model; May 2001, chip I
[5] = target: T1, MUC18-V5-His antigen (extracellular …); assay: SPR (Biacore 3000), mAb captured on protein A, MUC18-V5-His in flow, 1:1 model; October 2001, chip II
[6] = target: T1, MUC18-V5-His antigen (extracellular …); assay: SPR (Biacore 3000), mAb captured on protein A, MUC18-V5-His in flow, 1:1 model; November 2001, chip III; exponent printed without its minus sign
[7] = target: T2, human MUC18 expressed by human melanoma cells (A375-SM, TXM-13, WM-2664) (human, UniProt P43121 24-646); assay: immunoblot of melanoma cell lysates (40 ug protein, 10% SDS-PAGE, denatured MUC18), anti-human IgG secondary, ECL
T2 construct: whole, on cells; also called MCAM; Mel-CAM
Experimental: (§1) After overnight incubation, the plates were washed two times in PBS, and scraped in 400 μl Triton lysis buffer containing a cocktail of protease inhibitors plus DTT. Following centrifugation, the protein concentration was determined using a kit from BioRad. 40 μg of protein was loaded onto a 10% SDS-PAGE and electrophoretically transferred to a 0.45 -micron nitrocellulose membrane (Millipore). The membrane was incubated in buffer containing anti-MUC18 antibody overnight, reacted with a conjugated secondary antibody (Anti-human IgG) for one hour and the proteins were subsequently detected by the ECL (Amersham Corp) method according to the manufactures protocol.

[8] = target: T3, mouse MUC18 protein of normal (nude) mouse endothelial cells (mouse, UniProt Q8R2Y2 24-648); assay: immunoblot of nude mouse endothelial cell lysate (40 ug protein, 10% SDS-PAGE), anti-human IgG secondary, ECL
T3 construct: whole, on cells; Tested as cell lysate on SDS-PAGE immunoblot, not on intact cells; also called NME; NME2 cells
T3 sequence (looked up): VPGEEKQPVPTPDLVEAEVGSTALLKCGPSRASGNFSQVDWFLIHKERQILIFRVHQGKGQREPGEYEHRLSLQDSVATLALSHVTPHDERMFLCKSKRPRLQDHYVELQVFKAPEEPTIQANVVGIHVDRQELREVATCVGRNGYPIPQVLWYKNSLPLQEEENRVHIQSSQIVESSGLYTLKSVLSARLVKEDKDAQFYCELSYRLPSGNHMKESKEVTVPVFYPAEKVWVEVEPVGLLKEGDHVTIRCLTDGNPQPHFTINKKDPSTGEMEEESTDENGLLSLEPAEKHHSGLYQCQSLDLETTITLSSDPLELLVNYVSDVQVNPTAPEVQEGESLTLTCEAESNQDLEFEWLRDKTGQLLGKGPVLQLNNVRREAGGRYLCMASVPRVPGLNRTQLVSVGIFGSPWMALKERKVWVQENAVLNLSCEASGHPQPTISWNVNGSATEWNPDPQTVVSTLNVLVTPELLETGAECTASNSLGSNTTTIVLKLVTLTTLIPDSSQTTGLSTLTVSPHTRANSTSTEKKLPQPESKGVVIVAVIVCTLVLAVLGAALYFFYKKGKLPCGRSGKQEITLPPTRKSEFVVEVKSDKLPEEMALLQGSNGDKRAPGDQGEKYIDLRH
Experimental: as §1

[9] = target: T1, MUC18-V5-His antigen (extracellular …); assay: SPR (Biacore 3000), mAb captured on protein A, MUC18-V5-His in flow, 1:1 model; November 2001, chip III

B1: anti-MUC18 antibody c3.19.1 (antibody, human IgG2, V domains shown)
VH: QVQLQESGPGLVKPSETLSLTCTVSGGSISSYYWSWIRQPPGKGLEWIGYIYYTWTSNYNPSLKSRVTISVDTSKNQFSLRLSSVTAADTAVYYCARDQGQWLLPDAFDIWGQGTMVTVSS
VL: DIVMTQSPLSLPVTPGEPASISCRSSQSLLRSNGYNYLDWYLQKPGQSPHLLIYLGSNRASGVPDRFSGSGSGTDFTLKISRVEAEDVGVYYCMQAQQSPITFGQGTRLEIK
notes: also called ABX-MA1; MAb 3.19.1
In the case of B1, the koff [1] is reported as 0.000302 s⁻¹, the koff [2] is reported as 0.000402 s⁻¹ and 0.000396 s⁻¹ and the Kd [3] is reported as 0.61 nM. The koff [3] was 0.000375 s⁻¹, the kon [3] was 627000 M⁻¹ s⁻¹ and the Kd [4] was 0.67 nM. For the same binder, the kon [4] was 453000 M⁻¹ s⁻¹, the Kd [5] was 0.57 nM and 0.69 nM and the kon [5] was 709000 M⁻¹ s⁻¹ and 575000 M⁻¹ s⁻¹. The koff [6] was 0.000347 s⁻¹ and 0.000385 s⁻¹ and 0.000402 s⁻¹ and 0.000389 s⁻¹, the binding result [7] was “binds” and the binding result [8] was “no binding”. The Kd [9] was 0.46 nM and 0.62 nM and 0.65 nM and 0.59 nM and the kon [9] was 749000 M⁻¹ s⁻¹ and 625000 M⁻¹ s⁻¹ and 615000 M⁻¹ s⁻¹ and 661000 M⁻¹ s⁻¹.
